Laboratory results reported in patent publication US20150368338A1 (Janssen / Centocor, published 2015).

T1: IFN-αF (human, UniProt P01568 24-189)
T1 chain: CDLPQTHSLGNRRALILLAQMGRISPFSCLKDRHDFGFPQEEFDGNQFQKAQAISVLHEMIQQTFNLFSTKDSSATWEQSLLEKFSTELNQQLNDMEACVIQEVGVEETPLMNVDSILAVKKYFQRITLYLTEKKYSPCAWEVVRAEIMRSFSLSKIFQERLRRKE

B1: IFWM3314 (antibody, IgG1, V domains shown)
VH: EVQLVQSGAEVKKPGESLKISCKGSGYSFTSYWIGWVRQMPGKGLEWMGIIDPSDSDTRYSPSFQGQVTISADKSISTAYLQWSSLKASDTAMYYCARHPGLNWAPDFDYWGQGTLVTVSS
VL: DIQMTQSPSSLSASVGDRVTITCRASQSIDRALNWYQQKPGKAPKLLIYFASSLQSGVPSRFSGSGSGTDFTLTISSLQPEDFATYYCQQSFDFPLTFGQGTKVEIK
B2: IFWM3522 (antibody, IgG1, V domains shown)
VH: EVQLVQSGAEVKKPGESLKISCKGSGYSFTSYWIGWVRQMPGKGLEWMGIIDPSDSDTRYSPSFQGQVTISADKSISTAYLQWSSLKASDTAMYYCARHPGLNWAPDFDYWGQGTLVTVSS
VL: DIQMTQSPSSLSASVGDRVTITCRASQSIEGALNWYQQKPGKAPKLLIYFASSLQSGVPSRFSGSGSGTDFTLTISSLQPEDFATYYCQQAYDFPLTFGQGTKVEIK
B3: IFWM3322 (antibody, IgG1, V domains shown)
VH: EVQLVQSGAEVKKPGESLKISCKGSGYSFTSYWIGWVRQMPGKGLEWMGIIDPSDSDTRYSPSFQGQVTISADKSISTAYLQWSSLKASDTAMYYCARHPGLNWAPDFDYWGQGTLVTVSS
VL: DIQMTQSPSSLSASVGDRVTITCRASQSIADFLNWYQQKPGKAPKLLIYFASSLQSGVPSRFSGSGSGTDFTLTISSLQPEDFATYYCQQSHSFPLTFGQGTKVEIK
B4: IFWM3332 (antibody, IgG1, V domains shown)
VH: EVQLVQSGAEVKKPGESLKISCKGSGYSFTSYWIGWVRQMPGKGLEWMGIIDPSDSDTRYSPSFQGQVTISADKSISTAYLQWSSLKASDTAMYYCARHPGLNWAPDFDYWGQGTLVTVSS
VL: DIQMTQSPSSLSASVGDRVTITCRASQSIANTNLNWYQQKPGKAPKLLIHWASSLQSGVPSRFSGSGSGTDFTLTISSLQPEDFATYYCQQWYDNPLTFGQGTKVEIK
B5: IFWM3405 (antibody, IgG1, V domains shown)
VH: EVQLVQSGAEVKKPGESLKISCKGSGYSFTSYWIGWVRQMPGKGLEWMGIIDPSDSDTRYSPSFQGQVTISADKSISTAYLQWSSLKASDTAMYYCARHPGLAWAPDFDYWGQGTLVTVSS
VL: DIQMTQSPSSLSASVGDRVTITCRASQSIANNNLNWYQQKPGKAPKLLIHWASSLQSGVPSRFSGSGSGTDFTLTISSLQPEDFATYYCQQGYDTPFTFGQGTKVEIK
B6: IFWM3410 (antibody, IgG1, V domains shown)
VH: EVQLVQSGAEVKKPGESLKISCKGSGYSFTSYWIGWVRQMPGKGLEWMGIIDPSDSDTRYSPSFQGQVTISADKSISTAYLQWSSLKASDTAMYYCARHPGLAWAPDFDYWGQGTLVTVSS
VL: DIQMTQSPSSLSASVGDRVTITCRASQSIANTNLNWYQQKPGKAPKLLIHWASSLQSGVPSRFSGSGSGTDFTLTISSLQPEDFATYYCQQWYDNPLTFGQGTKVEIK
B7: IFWM3416 (antibody, IgG1, V domains shown)
VH: EVQLVQSGAEVKKPGESLKISCKGSGYSFTSYWIGWVRQMPGKGLEWMGIIDPSDSDTRYSPSFQGQVTISADKSISTAYLQWSSLKASDTAMYYCARHPGLAWAPDFDYWGQGTLVTVSS
VL: DIQMTQSPSSLSASVGDRVTITCRASQSIRNTNLNWYQQKPGKAPKLLIHWASSLQSGVPSRFSGSGSGTDFTLTISSLQPEDFATYYCQQGYDTPFTFGQGTKVEIK
B8: IFWM3400 (antibody, IgG1, V domains shown)
VH: EVQLVQSGAEVKKPGESLKISCKGSGYSFTSYWIGWVRQMPGKGLEWMGIIDPSDSDTRYSPSFQGQVTISADKSISTAYLQWSSLKASDTAMYYCARHPGLAWAPDFDYWGQGTLVTVSS
VL: DIQMTQSPSSLSASVGDRVTITCRASQSIADFLNWYQQKPGKAPKLLIYFASSLQSGVPSRFSGSGSGTDFTLTISSLQPEDFATYYCQQSHSFPLTFGQGTKVEIK
B9: IFWM3460 (antibody, V domains shown)
VH: EVQLVQSGAEVKKPGESLKISCKGSGYSFTSYWIGWVRQMPGKGLEWMGIIDPSDSDTRYSPSFQGQVTISADKSISTAYLQWSSLKASDTAMYYCARHPGLNWAPDFDYWGQGTLVTVSS
VL: DIQMTQSPSSLSASVGDRVTITCRASQSIDGFLNWYQQKPGKAPKLLIYVASSLQSGVPSRFSGSGSGTDFTLTISSLQPEDFATYYCQQSYDLPITFGQGTKVEIK
B10: IFWM3385 (antibody, IgG1, V domains shown)
VH: EVQLVQSGAEVKKPGESLKISCKGSGYSFTSYWIGWVRQMPGKGLEWMGIIDPSDSDTRYSPSFQGQVTISADKSISTAYLQWSSLKASDTAMYYCARHPGLAWAPDFDYWGQGTLVTVSS
VL: DIQMTQSPSSLSASVGDRVTITCRASQSIGDFLNWYQQKPGKAPKLLIYFASSLQSGVPSRFSGSGSGTDFTLTISSLQPEDFATYYCQQALDFPLTFGQGTKVEIK
B11: IFWM3455 (antibody, V domains shown)
VH: EVQLVQSGAEVKKPGESLKISCKGSGYSFTSYWIGWVRQMPGKGLEWMGIIDPSDSDTRYSPSFQGQVTISADKSISTAYLQWSSLKASDTAMYYCARHPGLNWAPDFDYWGQGTLVTVSS
VL: DIQMTQSPSSLSASVGDRVTITCRASQSIDGYLNWYQQKPGKAPKLLIYFASSLQSGVPSRFSGSGSGTDFTLTISSLQPEDFATYYCQQSYDLPITFGQGTKVEIK
B12: IFWM3328 (antibody, IgG1, V domains shown)
VH: EVQLVQSGAEVKKPGESLKISCKGSGYSFTSYWIGWVRQMPGKGLEWMGIIDPSDSDTRYSPSFQGQVTISADKSISTAYLQWSSLKASDTAMYYCARHPGLNWAPDFDYWGQGTLVTVSS
VL: DIQMTQSPSSLSASVGDRVTITCRASQSINNLNWYQQKPGKAPKLLIYWASSLQSGVPSRFSGSGSGTDFTLTISSLQPEDFATYYCQQGYDTPFTFGQGTKVEIK
B13: IFWM3320 (antibody, IgG1, V domains shown)
VH: EVQLVQSGAEVKKPGESLKISCKGSGYSFTSYWIGWVRQMPGKGLEWMGIIDPSDSDTRYSPSFQGQVTISADKSISTAYLQWSSLKASDTAMYYCARHPGLNWAPDFDYWGQGTLVTVSS
VL: DIQMTQSPSSLSASVGDRVTITCRASQSINGVLNWYQQKPGKAPKLLIYFASSLQSGVPSRFSGSGSGTDFTLTISSLQPEDFATYYCQQSHDFPLTFGQGTKVEIK

Tests used:
Experiment in all cases: cell-based or functional assay
IFN-αWA [1] = target: IFN-αWA (human, UniProt P05015 24-189)
IFN-α4a [2] = target: IFN-α4a (human, UniProt P05014 24-189)
IFN-αK [3] = target: IFN-αK (human, UniProt P05013 24-189)
IFN-αJ1 [4] = target: IFN-αJ1 (human, UniProt P01567 24-189)
IFN-αI [5] = target: T2, IFN-αI (human, UniProt P01571 24-189)
human IFN-ω [6] = target: T3, human IFN-ω (human, UniProt P05000 24-195)
IFN-αJ1 [7] = target: IFN-αJ1 (human, UniProt P01567 24-189); remark: listed apart in the source
IFN-αWA [8] = target: IFN-αWA (human, UniProt P05015 24-189); remark: listed apart in the source
IFN-αI [9] = target: T2, IFN-αI; remark: listed apart in the source
IFN-αH2 = IFN-αH2 (human, UniProt P01570 24-189)
IFN-αF = target: T1, IFN-αF
human IFN-ω [10] = target: human IFN-ω (human, UniProt P05000 24-195); remark: listed apart in the source
IFN-αC = IFN-αC (human, UniProt P01566 24-189)
IFN-αK [11] = target: IFN-αK (human, UniProt P05013 24-189); remark: listed apart in the source
IFN-α4a [12] = target: IFN-α4a (human, UniProt P05014 24-189); remark: listed apart in the source
IFN-αG = IFN-αG (human, UniProt P01569 24-189)
human IFN-ω [13] = target: T3, human IFN-ω; remark: listed apart in the source

Binder | IC50 (pM), ISRE assay (IFN-αWA [1]) [pM] | IC50 (pM), ISRE assay (IFN-α4a [2]) [pM] | IC50 (pM), ISRE assay (IFN-αK [3]) [pM] | IC50 (pM), ISRE assay (IFN-αJ1 [4]) [pM] | IC50 (pM), ISRE assay (IFN-αI [5]) [pM] | IC50 (pM), ISRE assay (human IFN-ω [6]) [pM] | other results
B1 | 188 | 137 | 65 | 86 | 163 | 32 | –
B2 | – | – | – | – | – | – | IC50, ISRE reporter gene assay (IFN-αJ1 [7]): 0.134 nM; IC50, ISRE reporter gene assay (IFN-αWA [8]): 0.185 nM; IC50, ISRE reporter gene assay (IFN-αI [9]): 0.124 nM; IC50, ISRE reporter gene assay (IFN-αH2): 0.034 nM; IC50, ISRE reporter gene assay (IFN-αF): 0.225 nM; IC50, ISRE reporter gene assay (human IFN-ω [10]): 0.053 nM; IC50, ISRE reporter gene assay (IFN-αC): 0.077 nM; IC50, ISRE reporter gene assay (IFN-αK [11]): 0.029 nM; IC50, ISRE reporter gene assay (IFN-α4a [12]): 0.163 nM; IC50, ISRE reporter gene assay (IFN-αG): 0.057 nM
B3 | 382 | 352 | 71 | 169 | 460 | 59 | –
B4 | 947 | 519 | 76 | 487 | 893 | 228 | –
B5 | 216 | 86 | 22 | 26 | 72 | 19 | –
B6 | 538 | 192 | 41 | 217 | 183 | 89 | –
B7 | 779 | 201 | 43 | 61 | 158 | 40 | –
B8 | 376 | 220 | 35 | 154 | 137 | 29 | –
B9 | – | – | – | – | – | – | IC50 (pM), ISRE reporter gene assay (human IFN-ω [13]): 43.5 pM
B10 | 839 | 414 | 65 | 251 | 225 | 68 | –
B11 | – | – | – | – | – | – | IC50 (pM), ISRE reporter gene assay (human IFN-ω [13]): 24 pM
B12 | 3080 | 1170 | 321 | 1660 | 2000 | 456 | –
B13 | 633 | 166 | 34 | 213 | 355 | 53 | –
